Data published in patent US10562947B2, “Compositions and methods for preventing or treating diseases, conditions or processes characterized by aberrant fibroblast proliferation and extracellular matrix deposition” (MOERAE MATRIX, INC., priority 2011, dated 2020).

Tests used:
Assay in all cases: Kinase Profiling Assay
Type in all cases: biochemical
Conditions in all cases: 100 μM peptide
IR(h) = molecular target: T1, IR(h) (Homo sapiens, UniProt P06213)
T1 construct: purchased Millipore
Summary of the method: (§1)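 First, MK2 inhibitor peptides were applied to a panel of 266 human kinases; then each kinase's activity was measured in duplicate to assess off-target inhibition.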

Abl(T315I)(h) = Abl(T315I)(h) (Homo sapiens, UniProt P00519, T315I)
Summary of the method: as §1

MST3(h) = MST3(h) (Homo sapiens, UniProt Q9Y6E0)
MST3(h), sequence (Q9Y6E0 whole entry): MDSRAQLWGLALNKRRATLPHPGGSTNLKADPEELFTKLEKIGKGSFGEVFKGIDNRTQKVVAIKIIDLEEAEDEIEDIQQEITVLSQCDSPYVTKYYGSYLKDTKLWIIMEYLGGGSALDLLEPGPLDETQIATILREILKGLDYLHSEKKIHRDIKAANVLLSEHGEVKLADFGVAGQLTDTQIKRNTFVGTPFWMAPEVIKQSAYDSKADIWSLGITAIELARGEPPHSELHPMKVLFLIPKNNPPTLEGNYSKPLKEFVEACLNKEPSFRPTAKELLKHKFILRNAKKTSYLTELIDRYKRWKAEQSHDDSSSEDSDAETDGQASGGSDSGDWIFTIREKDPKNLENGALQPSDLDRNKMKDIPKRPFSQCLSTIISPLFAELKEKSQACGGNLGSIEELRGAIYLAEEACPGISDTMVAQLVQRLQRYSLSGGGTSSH
Summary of the method: as §1

TAO2(h) = molecular target: T2, TAO2(h) (Homo sapiens, UniProt Q9UL54)
T2 sequence (Q9UL54 1-1235): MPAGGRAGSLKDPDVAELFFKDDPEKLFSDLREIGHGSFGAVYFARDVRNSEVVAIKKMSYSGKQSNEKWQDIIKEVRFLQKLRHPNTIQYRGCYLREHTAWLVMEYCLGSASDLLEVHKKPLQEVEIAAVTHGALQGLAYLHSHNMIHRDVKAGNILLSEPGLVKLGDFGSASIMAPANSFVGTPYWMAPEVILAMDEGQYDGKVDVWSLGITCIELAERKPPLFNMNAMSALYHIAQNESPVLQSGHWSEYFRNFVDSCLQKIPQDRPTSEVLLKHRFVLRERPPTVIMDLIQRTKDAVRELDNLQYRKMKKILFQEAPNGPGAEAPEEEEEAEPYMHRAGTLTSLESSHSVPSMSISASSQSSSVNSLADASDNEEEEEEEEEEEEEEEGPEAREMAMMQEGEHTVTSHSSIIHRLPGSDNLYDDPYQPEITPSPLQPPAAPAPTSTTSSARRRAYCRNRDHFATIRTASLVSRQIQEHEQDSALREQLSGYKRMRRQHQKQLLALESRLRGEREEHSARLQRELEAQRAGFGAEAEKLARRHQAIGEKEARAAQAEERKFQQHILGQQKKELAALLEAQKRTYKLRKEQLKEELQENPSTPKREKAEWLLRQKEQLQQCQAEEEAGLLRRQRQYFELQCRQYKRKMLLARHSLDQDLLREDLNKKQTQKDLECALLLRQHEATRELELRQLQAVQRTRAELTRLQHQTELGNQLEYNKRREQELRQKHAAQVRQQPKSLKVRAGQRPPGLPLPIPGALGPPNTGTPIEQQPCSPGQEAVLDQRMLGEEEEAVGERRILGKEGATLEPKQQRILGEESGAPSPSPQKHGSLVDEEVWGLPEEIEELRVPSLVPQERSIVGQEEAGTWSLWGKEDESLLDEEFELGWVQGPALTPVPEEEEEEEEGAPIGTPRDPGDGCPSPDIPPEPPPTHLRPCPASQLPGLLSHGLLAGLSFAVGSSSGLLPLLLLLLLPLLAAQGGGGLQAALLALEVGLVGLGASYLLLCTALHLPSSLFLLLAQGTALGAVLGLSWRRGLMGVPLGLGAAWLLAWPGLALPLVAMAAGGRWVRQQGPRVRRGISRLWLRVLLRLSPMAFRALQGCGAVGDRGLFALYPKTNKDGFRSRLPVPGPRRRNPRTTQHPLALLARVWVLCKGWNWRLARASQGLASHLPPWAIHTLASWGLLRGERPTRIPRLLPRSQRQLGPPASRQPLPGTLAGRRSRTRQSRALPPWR
Summary of the method: as §1

Fes(h) = Fes(h) (Homo sapiens, UniProt P07332)
Fes(h), sequence (P07332 whole entry): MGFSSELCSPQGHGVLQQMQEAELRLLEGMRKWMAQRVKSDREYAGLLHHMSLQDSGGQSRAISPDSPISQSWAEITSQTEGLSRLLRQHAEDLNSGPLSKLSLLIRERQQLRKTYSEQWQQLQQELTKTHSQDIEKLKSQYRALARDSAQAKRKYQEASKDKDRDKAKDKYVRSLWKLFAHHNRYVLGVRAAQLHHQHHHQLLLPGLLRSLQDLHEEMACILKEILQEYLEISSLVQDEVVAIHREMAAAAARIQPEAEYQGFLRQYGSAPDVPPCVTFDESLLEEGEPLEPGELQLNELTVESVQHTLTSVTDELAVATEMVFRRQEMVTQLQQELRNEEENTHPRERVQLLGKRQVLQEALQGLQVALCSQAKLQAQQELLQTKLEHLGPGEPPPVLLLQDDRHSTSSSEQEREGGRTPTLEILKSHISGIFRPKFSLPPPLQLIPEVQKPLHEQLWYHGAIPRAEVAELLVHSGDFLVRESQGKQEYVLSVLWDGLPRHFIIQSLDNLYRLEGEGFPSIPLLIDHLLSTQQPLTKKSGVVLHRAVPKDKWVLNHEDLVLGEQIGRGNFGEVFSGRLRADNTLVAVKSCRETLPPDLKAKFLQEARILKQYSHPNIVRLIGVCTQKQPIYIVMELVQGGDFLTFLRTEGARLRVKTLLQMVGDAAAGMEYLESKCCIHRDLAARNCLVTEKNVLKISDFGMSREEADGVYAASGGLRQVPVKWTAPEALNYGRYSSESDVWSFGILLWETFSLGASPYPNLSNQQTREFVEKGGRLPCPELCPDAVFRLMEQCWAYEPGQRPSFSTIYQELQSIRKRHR
Summary of the method: as §1

ARK5(h) = molecular target: T3, ARK5(h) (Homo sapiens, UniProt O60285)
T3 sequence (O60285 1-661): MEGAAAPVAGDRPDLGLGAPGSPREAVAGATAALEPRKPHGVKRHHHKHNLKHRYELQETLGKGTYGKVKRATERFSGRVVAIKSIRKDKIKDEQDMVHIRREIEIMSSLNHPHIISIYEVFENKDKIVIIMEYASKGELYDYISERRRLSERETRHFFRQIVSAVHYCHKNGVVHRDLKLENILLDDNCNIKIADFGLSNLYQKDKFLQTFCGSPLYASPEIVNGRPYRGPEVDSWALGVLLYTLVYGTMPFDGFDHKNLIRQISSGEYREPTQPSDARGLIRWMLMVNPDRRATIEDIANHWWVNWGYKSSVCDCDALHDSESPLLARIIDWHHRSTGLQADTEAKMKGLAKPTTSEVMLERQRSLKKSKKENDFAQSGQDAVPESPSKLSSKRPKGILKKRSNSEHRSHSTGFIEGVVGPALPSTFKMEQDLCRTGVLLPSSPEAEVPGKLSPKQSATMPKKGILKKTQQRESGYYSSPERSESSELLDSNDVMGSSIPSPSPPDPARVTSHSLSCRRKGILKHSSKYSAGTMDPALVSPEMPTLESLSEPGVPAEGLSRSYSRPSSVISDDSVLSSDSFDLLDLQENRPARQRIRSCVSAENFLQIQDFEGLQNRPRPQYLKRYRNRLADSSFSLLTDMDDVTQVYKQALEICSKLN
Summary of the method: as §1

EphA2(h) = EphA2(h) (Homo sapiens, UniProt P29317)
Summary of the method: as §1

CK2(h) = CK2(h) (Homo sapiens, UniProt P68400)
CK2(h), sequence (P68400 whole entry): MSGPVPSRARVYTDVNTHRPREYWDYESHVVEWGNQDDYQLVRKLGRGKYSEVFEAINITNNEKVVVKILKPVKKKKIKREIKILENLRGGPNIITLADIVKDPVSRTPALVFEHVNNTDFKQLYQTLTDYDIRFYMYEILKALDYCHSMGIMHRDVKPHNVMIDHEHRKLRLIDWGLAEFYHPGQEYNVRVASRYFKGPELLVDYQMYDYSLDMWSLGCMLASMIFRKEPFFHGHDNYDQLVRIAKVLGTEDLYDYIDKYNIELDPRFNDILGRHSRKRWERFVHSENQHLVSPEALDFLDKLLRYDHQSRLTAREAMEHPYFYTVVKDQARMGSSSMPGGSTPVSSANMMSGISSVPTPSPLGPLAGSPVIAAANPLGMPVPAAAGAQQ
CK2(h), sequence (P67870 whole entry partner): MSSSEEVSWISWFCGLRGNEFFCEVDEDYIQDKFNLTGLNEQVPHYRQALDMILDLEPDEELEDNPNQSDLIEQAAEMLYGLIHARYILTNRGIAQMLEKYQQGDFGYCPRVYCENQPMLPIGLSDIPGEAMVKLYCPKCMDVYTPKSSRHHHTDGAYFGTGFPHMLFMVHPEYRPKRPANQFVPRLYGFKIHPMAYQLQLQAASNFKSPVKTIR
Summary of the method: as §1

Sequence | IR(h) % activity (IR(h)) | Abl(T315I)(h) % activity (Abl(T315I)(h)) | MST3(h) % activity (MST3(h)) | TAO2(h) % activity (TAO2(h)) | Fes(h) % activity (Fes(h)) | ARK5(h) % activity (ARK5(h)) | EphA2(h) % activity (EphA2(h)) | CK2(h) % activity (CK2(h))
FAKLAARLYRKALARQLGVAA [MMI-0300] | 96% | 97% | 45% | 70% | 20% | 78% | 31% | 90%
HRRIKAWLKKIKALARQLGVAA (Mammalian) [MMI-0500] | 95% | 16% | 4% | 15% | 23% | 20% |  | 93%
KAFAKLAARLYRKALARQLGVAA [MMI-0400] | 85% |  | 36% | 74% | 16% | 69% | 17% | 101%
YARAAARQARAKALNRQLGVA (Mammalian) [MMI-0200] | 90% | 108% | 95% | 93% | 74% | 93% | 95% | 83%
